Among the data in PMC6515407, “Laccases with Variable Properties from Different Strains of Steccherinum ochraceum: Does Glycosylation Matter?” (International Journal of Molecular Sciences, 2019) are Km, kcat and kcat/Km values, retold here.

Assay in all cases: spectrophotometric oxidation kinetics
What all share (type): biochemical, Steccherinum ochraceum
Conditions in all cases: 0.1 M McIlvaine buffer pH 4.5, 25 °C, native glycosylated enzyme

Substrate in data set [1]: COc1cccc(OC)c1O
From the text:
(§1) spectrophotometric oxidation kinetics on So2134

Substrate in data set [2]: CCn1c(=NN=c2sc3cc(S(=O)(=O)O)ccc3n2CC)sc2cc(S(=O)(=O)O)ccc21
From the text: as §1

Substrate in data set [3]: COc1cc(C=NN=Cc2cc(OC)c(O)c(OC)c2)cc(OC)c1O
From the text: as §1

B1: So2134 (Steccherinum ochraceum) (protein)
chain: VQIGPVTDLHITNANIAPDGFTRPAVLAGGTFPGPTISGNTGDNFQITVFNELTETSMLTDTSIHWHGLFQKGTNWADGPAFVTQCPIITGNSFDYNFNVPGQAGTYWYHSHLSTQYCDGLRGPFVVYDPNDPNASLYDVDDDTTIITLADWYHTLAQQEPIGAAITADATLINGLGRSFTNTTASPLSVITVQSGKRYRMRLVSISCDPNYQFSIDGHDMTIIEVDGVNSQQLTVDQIQIFAAQRYSFVLNANQPVGNYWIRAQPNSGGQGFDGGINSAILRYEGATVADPTTSPPTTFTSPLVETNLHPLADLGVPGQPFRGGADDPMVLNLGFANGRFTIDGVSFVPPTVPVLLQILSGAQNAQDLLPAGSVISLPPNSVIEVALPAGAAGGPHPFHLHGHNFAVVQSANNATPNYVNPIWRDTVSIGGTGDNVTIRFTTNNPGPWFLHCHIDWHLEAGFAIVFAEDIPDTASANPVPQAWSDLCPAYDQAHNISTAT
Turning to B1, in data set [1], the Km came to 21 ± 2 µM, the kcat is 166 ± 14 s⁻¹ and the kcat/Km worked out at 7.9e+06 ± 1.03e+06 M⁻¹ s⁻¹. Also, in data set [2], the Km was 100 ± 6 µM, the turnover number (kcat) came to 254 ± 23 s⁻¹ and the kcat/Km turned out to be 2.54e+06 ± 276000 M⁻¹ s⁻¹. Moreover, in data set [3], the Km was 3.7 ± 0.5 µM, the kcat worked out at 91 ± 7 s⁻¹ and the specificity constant (kcat/Km) came to 2.46e+07 ± 3.93e+06 M⁻¹ s⁻¹.
